Data on one molecule can be found in patent publication US20220184181A1 (Stanford University, published 2022).

The assay deals with Met receptor on MDCK cells (UniProt Q75ZY9 25-1382, limits assumed). Briefly: cell-based or functional assay.

B1: recombinant Aras-4, soluble (ligand)
chain: YAEGQGKRRNTIHEFKKSAKTTLIKIDPALRIKTEKANTADQCANRCTRSKGLPFTCKAFVFDKARKRCLWFPFNSMSSGVKKEFGHEFDLYENKAYIRDCIIGRGRNYRGTVSITKSGIKCQPWSAMIPHEHSFLPSSYRGEDLRENYCRNPRGEEGGPWCYTSDPEVRYEVCDIPQCSEVE
For the molecule B1, the “inhibition of HGF-induced activation of Met” value was around 5 fold lower concentration.
